Nine substances from the supplement of paper PMC5998384 can be followed below.

The test system of data set [1] is HeLa Kyoto. Kind of data set: solubility change mitosis vs G1/S (difference of NP-40 vs SDS log2 ratios) (log2 ratio difference); higher = more soluble in mitosis.
Data set [2] has as its system HeLa Kyoto. Nature of the data set: solubility in G1/S (NP-40 vs SDS abundance) (log2 ratio); higher = more soluble. The settings on record: cell cycle stage: G1/S.
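For solubility change mitosis vs G1/S (difference of NP-40 vs SDS log2 ratios) in this document: synchronized HeLa Kyoto cells (double thymidine block for G1/S, nocodazole release for mitosis), protein amounts in NP-40 versus SDS lysates quantified by mass spectrometry, three biological replicates.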
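For solubility in G1/S (NP-40 vs SDS abundance) in this document: HeLa Kyoto cells arrested at G1/S by double thymidine block, proteins quantified by TMT10plex mass spectrometry in mild NP-40 versus SDS extracts, three biological replicates.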

Consider “MMQGNTCHRMSFHPGRGCPRGRGGHGARPSAPSFRPQNLRLLHPQQPPVQYQYEPPSAPSTTFSNSPAPNFLPPRPDFVPFPPPMPPSAQGPLPPCPIRPPFPNHQMRHPFPVPPCFPPMPPPMPCPNNPPVPGAPPGQGTFPFMMPPPSMPHPPPPPVMPQQVNYQYPPGYSHHNFPPPSFNSFQNNPSSFLPSANNSSSPHFRHLPPYPLPKAPSERRSPERLKHYDDHRHRDHSHGRGERHRSLDRRERGRSPDRRRQDSRYRSDYDRGRTPSRHRSYERSRERERERHRHRDNRRSPSLERSYKKEYKRSGRSYGLSVVPEPAGCTPELPGEIIKNTDSWAPPLEIVNHRSPSREKKRARWEEEKDRWSDNQSSGKDKNYTSIKEKEPEETMPDKNEEEEEELLKPVWIRCTHSENYYSSDPMDQVGDSTVVGTSRLRDLYDKFEEELGSRQEKAKAARPPWEPPKTKLDEDLESSSESECESDEDSTCSSSSDSEVFDVIAEIKRKKAHPDRLHDELWYNDPGQMNDGPLCKCSAKARRTGIRHSIYPGEEAIKPCRPMTNNAGRLFHYRITVSPPTNFLTDRPTVIEYDDHEYIFEGFSMFAHAPLTNIPLCKVIRFNIDYTIHFIEEMMPENFCVKGLELFSLFLFRDILELYDWNLKGPLFEDSPPCCPRFHFMPRFVRFLPDGGKEVLSMHQILLYLLRCSKALVPEEEIANMLQWEELEWQKYAEECKGMIVTNPGTKPSSVRIDQLDREQFNPDVITFPIIVHFGIRPAQLSYAGDPQYQKLWKSYVKLRHLLANSPKVKQTDKQKLAQREEALQKIRQKNTMRREVTVELSSQGFWKTGIRSDVCQHAMMLPVLTHHIRYHQCLMHLDKLIGYTFQDRCLLQLAMTHPSHHLNFGMNPDHARNSLSNCGIRQPKYGDRKVHHMHMRKKGINTLINIMSRLGQDDPTPSRINHNERLEFLGDAVVEFLTSVHLYYLFPSLEEGGLATYRTAIVQNQHLAMLAKKLELDRFMLYAHGPDLCRESDLRHAMANCFEALIGAVYLEGSLEEAKQLFGRLLFNDPDLREVWLNYPLHPLQLQEPNTDRQLIETSPVLQKLTEFEEAIGVIFTHVRLLARAFTLRTVGFNHLTLGHNQRMEFLGDSIMQLVATEYLFIHFPDHHEGHLTLLRSSLVNNRTQAKVAEELGMQEYAITNDKTKRPVALRTKTLADLLESFIAALYIDKDLEYVHTFMNVCFFPRLKEFILNQDWNDPKSQLQQCCLTLRTEGKEPDIPLYKTLQTVGPSHARTYTVAVYFKGERIGCGKGPSIQQAEMGAAMDALEKYNFPQMAHQKRFIERKYRQELKEMRWEREHQEREPDETEDIKK [DROSHA]”, for which the “solubility change mitosis (log2)” value with HeLa Kyoto [1] worked out at 0.203. Moreover, in the data set with HeLa Kyoto [2], the “solubility in G1/S (log2)” value was -0.744.

Consider “MELLCCEGTRHAPRAGPDPRLLGDQRVLQSLLRLEERYVPRASYFQCVQREIKPHMRKMLAYWMLEVCEEQRCEEEVFPLAMNYLDRYLSCVPTRKAQLQLLGAVCMLLASKLRETTPLTIEKLCIYTDHAVSPRQLRDWEVLVLGKLKWDLAAVIAHDFLAFILHRLSLPRDRQALVKKHAQTFLALCATDYTFAMYPPSMIATGSIGAAVQGLGACSMSGDELTELLAGITGTEVDCLRACQEQIEAALRESLREASQTSSSPAPKAPRGSSSQGPSQTSTPTDVTAIHL [CCND3]”, for which, in the data set on HeLa Kyoto [1], the “solubility change mitosis (log2)” value was -0.386. Besides, in the data set on HeLa Kyoto [2], the “solubility in G1/S (log2)” value stood at 0.226.

“MSEARGEPGSGPEAGARFFCTAGRGLEPFVMREVRARLAATQVEYISGKVFFTTCSDLNMLKKLKSAERLFLLIKKQFPLIISSVSKGKIFNEMQRLINEDPGSWLNAISIWKNLLELDAKKEKLSQRDDNQLKRKVGENEIIAKKLKIEQMQKIEENRDCQLEKQIKEETLEQRDFTTKSEKFQEEEFQNDIEKAIDTHNQNDLTFRVSCRCSGTIGKAFTAQEVGKVIGIAIMKHFGWKADLRNPQLEIFIHLNDIYSVVGIPVFRVSLASRAYIKTAGLRSTIAWAMASLADIKAGAFVLDPMCGLGTILLEAAKEWPDVYYVGADVSDSQLLGTWDNLKAAGLEDKIELLKISVIELPLPSESVDIIISDIPFGKKFKLGKDIKSILQEMERVLHVGGTIVLLLSEDHHRRLTDCKESNIPFNSKDSHTDEPGIKKCLNPEEKTGAFKTASTSFEASNHKFLDRMSPFGSLVPVECYKVSLGKTDAFICKYKKSHSSGL [THUMPD2]”: the “solubility change mitosis (log2)” value in the data set on HeLa Kyoto [1] was -0.134. The “solubility in G1/S (log2)” value with HeLa Kyoto [2] is 0.0337.

As to “MPGAGARAEEGGGGGEGAAQGAAAEPGAGPAREPARLCGYLQKLSGKGPLRGYRSRWFVFDARRCYLYYFKSPQDALPLGHLDIADACFSYQGPDEAAEPGTEPPAHFQVHSAGAVTVLKAPNRQLMTYWLQELQQKRWEYCNSLDMVKWDSRTSPTPGDFPKGLVARDNTDLIYPHPNASAEKARNVLAVETVPGELVGEQAANQPAPGHPNSINFYSLKQWGNELKNSMSSFRPGRGHNDSRRTVFYTNEEWELLDPTPKDLEESIVQEEKKKLTPEGNKGVTGSGFPFDFGRNPYKGKRPLKDIIGSYKNRHSSGDPSSEGTSGSGSVSIRKPASEMQLQVQSQQEELEQLKKDLSSQKELVRLLQQTVRSSQYDKYFTSSRLCEGVPKDTLELLHQKDDQILGLTSQLERFSLEKESLQQEVRTLKSKVGELNEQLGMLMETIQAKDEVIIKLSEGEGNGPPPTVAPSSPSVVPVARDQLELDRLKDNLQGYKTQNKFLNKEILELSALRRNAERRERDLMAKYSSLEAKLCQIESKYLILLQEMKTPVCSEDQGPTREVIAQLLEDALQVESQEQPEQAFVKPHLVSEYDIYGFRTVPEDDEEEKLVAKVRALDLKTLYLTENQEVSTGVKWENYFASTVNREMMCSPELKNLIRAGIPHEHRSKVWKWCVDRHTRKFKDNTEPGHFQTLLQKALEKQNPASKQIELDLLRTLPNNKHYSCPTSEGIQKLRNVLLAFSWRNPDIGYCQGLNRLVAVALLYLEQEDAFWCLVTIVEVFMPRDYYTKTLLGSQVDQRVFRDLMSEKLPRLHGHFEQYKVDYTLITFNWFLVVFVDSVVSDILFKIWDSFLYEGPKVIFRFALALFKYKEEEILKLQDSMSIFKYLRYFTRTILDARKLISISFGDLNPFPLRQIRNRRAYHLEKVRLELTELEAIREDFLRERDTSPDKGELVSDEEEDT [TBC1D2B]”, the “solubility change mitosis (log2)” value in the data set on HeLa Kyoto [1] is -0.0456. For the same substance, the “solubility in G1/S (log2)” value in the data set on HeLa Kyoto [2] is -0.186.

Consider “MEEEQDLPEQPVKKAKMQESGEQTISQVSNPDVSDQKPETSSLASNLPMSEEIMTCTDYIPRSSNDYTSQMYSAKPYAHILSVPVSETAYPGQTQYQTLQQTQPYAVYPQATQTYGLPPFGALWPGMKPESGLIQTPSPSQHSVLTCTTGLTTSQPSPAHYSYPIQASSTNASLISTSSTIANIPAAAVASISNQDYPTYTILGQNQYQACYPSSSFGVTGQTNSDAESTTLAATTYQSEKPSVMAPAPAAQRLSSGDPSTSPSLSQTTPSKDTDDQSRKNMTSKNRGKRKADATSSQDSELERVFLWDLDETIIIFHSLLTGSYAQKYGKDPTVVIGSGLTMEEMIFEVADTHLFFNDLEECDQVHVEDVASDDNGQDLSNYSFSTDGFSGSGGSGSHGSSVGVQGGVDWMRKLAFRYRKVREIYDKHKSNVGGLLSPQRKEALQRLRAEIEVLTDSWLGTALKSLLLIQSRKNCVNVLITTTQLVPALAKVLLYGLGEIFPIENIYSATKIGKESCFERIVSRFGKKVTYVVIGDGRDEEIAAKQHNMPFWRITNHGDLVSLHQALELDFL [EYA3]”, for which the “solubility change mitosis (log2)” value in the data set with HeLa Kyoto [1] was -0.0147. For the same substance, the “solubility in G1/S (log2)” value with HeLa Kyoto [2] was -0.0392.

On to “MEKLSALQEQKGELRKRLSYTTHKLEKLETEFDSTRHYLEIELRRAQEELEKVTEKLRRIQSNYMALQRINQELEDKLYRMGQHYEEEKRALSHEIVALNSHLLEAKVTIDKLSEDNELYRKDCNLAAQLLQCSQTYGRVHKVSELPSDFQERVSLHMEKHGCSLPSPLCHPAYADSVPTCVIAKVLEKPDPASLSSRLSDASARDLAFCDGVEKPGPRPPYKGDIYCSDTALYCPEERRRDRRPSVDAPVTDVGFLRAQNSTDSAAEEEEEAEAAAFPAGFQHEAFPSYAGSLPTSSSYSSFSATSEEKEHAQASTLTASQQAIYLNSRDELFDRKPPATTYEGSPRFAKATAAVAAPLEAEVAPGFGRTMSPYPAETFRFPASPGPQQALMPPNLWSLRAKPGTARLPGEDMRGQWRPLSVEDIGAYSYPVSAAGRASPCSFSERYYGGAGGSPGKKADGRASPLYASYKADSFSEGDDLSQGHLAEPCFLRAGGDLSLSPGRSADPLPGYAPSEGGDGDRLGVQLCGTASSPEPEQGSRDSLEPSSMEASPEMHPAARLSPQQAFPRTGGSGLSRKDSLTKAQLYGTLLN [BEGAIN]”, for which the “solubility change mitosis (log2)” value in the data set on HeLa Kyoto [1] came out at 0.103. The “solubility in G1/S (log2)” value in the data set with HeLa Kyoto [2] is 0.208.

As to “MASVLSYESLVHAVAGAVGSVTAMTVFFPLDTARLRLQVDEKRKSKTTHMVLLEIIKEEGLLAPYRGWFPVISSLCCSNFVYFYTFNSLKALWVKGQHSTTGKDLVVGFVAGVVNVLLTTPLWVVNTRLKLQGAKFRNEDIVPTNYKGIIDAFHQIIRDEGISALWNGTFPSLLLVFNPAIQFMFYEGLKRQLLKKRMKLSSLDVFIIGAVAKAIATTVTYPLQTVQSILRFGRHRLNPENRTLGSLRNILYLLHQRVRRFGIMGLYKGLEAKLLQTVLTAALMFLVYEKLTAATFTVMGLKRAHQH [SLC25A17]”, the “solubility change mitosis (log2)” value in the data set with HeLa Kyoto [1] is -0.0966. Besides, the “solubility in G1/S (log2)” value in the data set with HeLa Kyoto [2] is -0.148.

Take SIPA1L2: the “solubility change mitosis (log2)” value in the data set on HeLa Kyoto [1] came out at 0.275. For the same substance, the “solubility in G1/S (log2)” value with HeLa Kyoto [2] is -0.433.

As for “MPGEEEERAFLVAREELASALRRDSGQAFSLEQLRPLLASSLPLAARYLQLDAARLVRCNAHGEPRNYLNTLSTALNILEKYGRNLLSPQRPRYWRGVKFNNPVFRSTVDAVQGGRDVLRLYGYTEEQPDGLSFPEGQEEPDEHQVATVTLEVLLLRTELSLLLQNTHPRQQALEQLLEDKVEDDMLQLSEFDPLLREIAPGPLTTPSVPGSTPGPCFLCGSAPGTLHCPSCKQALCPACDHLFHGHPSRAHHLRQTLPGVLQGTHLSPSLPASAQPRPQSTSLLALGDSSLSSPNPASAHLPWHCAACAMLNEPWAVLCVACDRPRGCKGLGLGTEGPQGTGGLEPDLARGRWACQSCTFENEAAAVLCSICERPRLAQPPSLVVDSRDAGICLQPLQQGDALLASAQSQVWYCIHCTFCNSSPGWVCVMCNRTSSPIPAQHAPRPYASSLEKGPPKPGPPRRLSAPLPSSCGDPEKQRQDKMREEGLQLVSMIREGEAAGACPEEIFSALQYSGTEVPLQWLRSELPYVLEMVAELAGQQDPGLGAFSCQEARRAWLDRHGNLDEAVEECVRTRRRKVQELQSLGFGPEEGSLQALFQHGGDVSRALTELQRQRLEPFRQRLWDSGPEPTPSWDGPDKQSLVRRLLAVYALPSWGRAELALSLLQETPRNYELGDVVEAVRHSQDRAFLRRLLAQECAVCGWALPHNRMQALTSCECTICPDCFRQHFTIALKEKHITDMVCPACGRPDLTDDTQLLSYFSTLDIQLRESLEPDAYALFHKKLTEGVLMRDPKFLWCAQCSFGFIYEREQLEATCPQCHQTFCVRCKRQWEEQHRGRSCEDFQNWKRMNDPEYQAQGLAMYLQENGIDCPKCKFSYALARGGCMHFHCTQCRHQFCSGCYNAFYAKNKCPEPNCRVKKSLHGHHPRDCLFYLRDWTALRLQKLLQDNNVMFNTEPPAGARAVPGGGCRVIEQKEVPNGLRDEACGKETPAGYAGLCQAHYKEYLVSLINAHSLDPATLYEVEELETATERYLHVRPQPLAGEDPPAYQARLLQKLTEEVPLGQSIPRRRK [RNF31]”, the “solubility change mitosis (log2)” value with HeLa Kyoto [1] is -0.0502. In the data set on HeLa Kyoto [2], the “solubility in G1/S (log2)” value is -0.0767.
